# Measurements as given in patent US20250339504A1 (published 2025).
# T1: GPC3 peptide on HLA-A*24:02 (human)
# T1 peptide: EYILSLEEL
# T2: FOXM1 peptide on HLA-A*24:02 (human)
# T2 peptide: IYTWIEDHF
# T3: GPC3 peptide on HLA-A2 (human)
# T3 peptide: FVGEFFTDV
# Target: T1, GPC3 peptide on HLA-A*24:02
# Assay: multimer staining
row,binding result,Binder
1,recognises,"G9 (TCR, V domains shown) Valpha: KQEVTQIPAALSVPEGENLVLNCSFTDSAIYNLQWFRQDPGKGLTSLLLIQSSQREQTSGRLNASLDKSSGRSTLYIAASQPGDSATYLCAVTRRALTFGSGTRLQVQP Vbeta: KAGVTQTPRYLIKTRGQQVTLSCSPISGHRSVSWYQQTPGQGLQFLFEYFSETQRNKGNFPGRFSGRQFSNSRSEMNVSTLELGDSALYLCASSVTSGRTHTDTQYFGPGTRLTVL"
2,recognises,"i2F3 (TCR, V domains shown) Valpha: RKEVEQDPGPFNVPEGATVAFNCTYSNSASQSFFWYRQDCRKEPKLLMSVYSSGNEDGRFTAQLNRASQYISLLIRDSKLSDSATYLCVVNKSWGKLQFGAGTQVVVTP Vbeta: DSGVTQTPKHLITATGQRVTLRCSPRSGDLSVYWYQQSLDQGLQFLIQYYNGEERAKGNILERFSAQQFPDLHSELNLSSLELGDSALYFCASSAGTSGNEQFFGPGTRLTVL"

# The remaining lines, values behind:
row,Binder,binding result
1,"(46)2A6 (TCR, V domains shown) Valpha: RKEVEQDPGPFNVPEGATVAFNCTYSNSASQSFFWYRQDCRKEPKLLMSVYSSGNEDGRFTAQLNRASQYISLLIRDSKLSDSATYLCKISGGYNKLIFGAGTRLAVHP Vbeta: DSGVTQTPKHLITATGQRVTLRCSPRSGDLSVYWYQQSLDQGLQFLIQYYNGEERAKGNILERFSAQQFPDLHSELNLSSLELGDSALYFCASSVGGGLGTEAFFGQGTRLTVV",recognises
2,"i6E9 (TCR, V domains shown) Valpha: RKEVEQDPGPFNVPEGATVAFNCTYSNSASQSFFWYRQDCRKEPKLLMSVYSSGNEDGRFTAQLNRASQYISLLIRDSKLSDSATYLCVVNLGNYGQNFVFGPGTRLSVLP Vbeta: DSGVTQTPKHLITATGQRVTLRCSPRSGDLSVYWYQQSLDQGLQFLIQYYNGEERAKGNILERFSAQQFPDLHSELNLSSLELGDSALYFCASSVGGGLSNEQFFGPGTRLTVL",recognises
3,"eC7 (TCR, V domains shown) Valpha: SQQGEEDPQALSIQEGENATMNCSYKTSINNLQWYRQNSGRGLVHLILIRSNEREKHSGRLRVTLDTSKKSSSLLITASRAADTASYFCAVRYSSASKIIFGSGTRLSIRP Vbeta: DSGVTQTPKHLITATGQRVTLRCSPRSGDLSVYWYQQSLDQGLQFLIQYYNGEERAKGNILERFSAQQFPDLHSELNLSSLELGDSALYFCASSAGGGSNNEQFFGPGTRLTVL",recognises
4,"i7E6, TRA of SEQ ID NO: 139 (TCR, V domains shown) Valpha: KQEVTQIPAALSVPEGENLVLNCSFTDSAIYNLQWFRQDPGKGLTSLLLIQSSQREQTSGRLNASLDKSSGRSTLYIAASQPGDSATYLCAVKRRAAGNKLTFGGGTRVLVKP Vbeta: DSGVTQTPKHLITATGQRVTLRCSPRSGDLSVYWYQQSLDQGLQFLIQYYNGEERAKGNILERFSAQQFPDLHSELNLSSLELGDSALYFCASSPGGGASSPLHFGNGTRLTVT",recognises
5,"il2G6, TRA of SEQ ID NO: 129 (TCR, V domains shown) Valpha: LAKTTQPISMDSYEGQEVNITCSHNNIATNDYITWYQQFPSQGPRFIIQGYKTKVTNEVASLFIPADRKSSTLSLPRVSLSDTAVYYCLVGHSGNTPLVFGKGTRLSVIA Vbeta: DSGVTQTPKHLITATGQRVTLRCSPRSGDLSVYWYQQSLDQGLQFLIQYYNGEERAKGNILERFSAQQFPDLHSELNLSSLELGDSALYFCASSVGGGAGNTIYFGEGSWLTVV",recognises
6,"i7E6, TRA of SEQ ID NO: 138 (TCR, V domains shown) Valpha: AQRVTQPEKLLSVFKGAPVELKCNYSYSGSPELFWYVQYSRQRLQLLLRHISRESIKGFTADLNKGETSFHLKKPFAQEEDSAMYYCALANQAGTALIFGKGTTLSVSS Vbeta: DSGVTQTPKHLITATGQRVTLRCSPRSGDLSVYWYQQSLDQGLQFLIQYYNGEERAKGNILERFSAQQFPDLHSELNLSSLELGDSALYFCASSPGGGASSPLHFGNGTRLTVT",recognises
7,"eC1 (TCR, V domains shown) Valpha: GESVGLHLPTLSVQEGDNSIINCAYSNSASDYFIWYKQESGKGPQFIIDIRSNMDKRQGQRVTVLLNKTVKHLSLQIAATQPGDSAVYFCAGRTGFQKLVFGTGTRLLVSP Vbeta: DSGVTQTPKHLITATGQRVTLRCSPRSGDLSVYWYQQSLDQGLQFLIQYYNGEERAKGNILERFSAQQFPDLHSELNLSSLELGDSALYFCASSVGGGLYNEQFFGPGTRLTVL",recognises
8,"il2G6, TRA of SEQ ID NO: 130 (TCR, V domains shown) Valpha: RKEVEQDPGPFNVPEGATVAFNCTYSNSASQSFFWYRQDCRKEPKLLMSVYSSGNEDGRFTAQLNRASQYISLLIRDSKLSDSATYLCVVNTGRRALTFGSGTRLQVQP Vbeta: DSGVTQTPKHLITATGQRVTLRCSPRSGDLSVYWYQQSLDQGLQFLIQYYNGEERAKGNILERFSAQQFPDLHSELNLSSLELGDSALYFCASSVGGGAGNTIYFGEGSWLTVV",recognises
9,"i3C2 (TCR, V domains shown) Valpha: GQNIDQPTEMTATEGAIVQINCTYQTSGFNGLFWYQQHAGEAPTFLSYNVLDGLEEKGRFSSFLSRSKGYSYLLLKELQMKDSASYLCAVRVWKAAGNKLTFGGGTRVLVKP Vbeta: GAVVSQHPSWVICKSGTSVKIECRSLDFQATTMFWYRQFPKQSLMLMATSNEGSKATYEQGVEKDKFLINHASLTLSTLTVTSAHPEDSSFYICSARRLAGGGNEQFFGPGTRLTVL",recognises
10,"eD3 (TCR, V domains shown) Valpha: RKEVEQDPGPFNVPEGATVAFNCTYSNSASQSFFWYRQDCRKEPKLLMSVYSSGNEDGRFTAQLNRASQYISLLIRDSKLSDSATYLCVVKGGNNFNKFYFGSGTKLNVKP Vbeta: NAGVTQTPKFQVLKTGQSMTLQCAQDMNHNSMYWYRQDPGMGLRLIYYSASEGTTDKGEVPNGYNVSRLNKREFSLRLESAAPSQTSVYFCASSHRVNSNQPQHFGDGTRLSIL",recognises

# Target: T2, FOXM1 peptide on HLA-A*24:02
# Assay: multimer staining
row,binding result,Binder
1,recognises,"1F5 (TCR, V domains shown) Valpha: EDQVTQSPEALRLQEGESSSLNCSYTVSGLRGLFWYRQDPGKGPEFLFTLYSAGEEKEKERLKATLTKKESFLHITAPKPEDSATYLCAASNSGGSNYKLTFGKGTLLTVNP Vbeta: DSGVTQTPKHLITATGQRVTLRCSPRSGDLSVYWYQQSLDQGLQFLIQYYNGEERAKGNILERFSAQQFPDLHSELNLSSLELGDSALYFCASSVDGKGTQYFGPGTRLLVL"
2,recognises,"F5 (TCR, V domains shown) Valpha: KDQVFQPSTVASSEGAVVEIFCNHSVSNAYNFFWYLHFPGCAPRLLVKGSKPSQQGRYNMTYERFSSSLLILQVREADAAVYYCAVNQAGTALIFGKGTTLSVSS Vbeta: DTEVTQTPKHLVMGMTNKKSLKCEQHMGHRAMYWYKQKAKKPPELMFVYSYEKLSINESVPSRFSPECPNSSLLNLHLHALQPEDSALYLCASSQERTSGRSADTQYFGPGTRLTVL"
3,recognises,"(21)1D5 (TCR, V domains shown) Valpha: QKEVEQDPGPLSVPEGAIVSLNCTYSNSAFQYFMWYRQYSRKGPELLMYTYSSGNKEDGRFTAQVDKSSKYISLFIRDSQPSDSATYLCAMSGHFNKFYFGSGTKLNVKP Vbeta: KAGVTQTPRYLIKTRGQQVTLSCSPISGHRSVSWYQQTPGQGLQFLFEYFSETQRNKGNFPGRFSGRQFSNSRSEMNVSTLELGDSALYLCASSLRAGELFFGEGSRLTVL"
4,recognises,"②1E7 (TCR, V domains shown) Valpha: AQSVSQHNHHVILSEAASLELGCNYSYGGTVNLFWYVQYPGQHLQLLLKYFSGDPLVKGIKGFEAEFIKSKFSFNLRKPSVQWSDTAEYFCAVRHGGTGTASKLTFGTGTRLQVTL Vbeta: GAVVSQHPSWVICKSGTSVKIECRSLDFQATTMFWYRQFPKQSLMLMATSNEGSKATYEQGVEKDKFLINHASLTLSTLTVTSAHPEDSSFYICSARALGGYTFGSGTRLTVV"

# Target: T3, GPC3 peptide on HLA-A2
# Assay: multimer staining
row,binding result,Binder
1,recognises,"⑧2D9 (TCR, V domains shown) Valpha: QKEVEQNSGPLSVPEGAIASLNCTYSDRGSQSFFWYRQYSGKSPELIMFIYSNGDKEDGRFTAQLNKASQYVSLLIRDSQPSDSATYLCAVNMDGNNRLAFGKGNQVVVIP Vbeta: DAGITQSPRHKVTETGTPVTLRCHQTENHRYMYWYRQDPGHGLRLIHYSYGVKDTDKGEVSDGYSVSRSKTEDFLLTLESATSSQTSVYFCASVYGSEAFFGQGTRLTVV"
2,recognises,"52B11 (TCR, V domains shown) Valpha: QKEVEQDPGPLSVPEGAIVSLNCTYSNSAFQYFMWYRQYSRKGPELLMYTYSSGNKEDGRFTAQVDKSSKYISLFIRDSQPSDSATYLCAQRIVMEYGNKLVFGAGTILRVKS Vbeta: EPEVTQTPSHQVTQMGQEVILRCVPISNHLYFYWYRQILGQKVEFLVSFYNNEISEKSEIFDDQFSVERPDGSNFTLKIRSTKLEDSAMYFCASSEGAEAFFGQGTRLTVV"
3,recognises,"⑨5C6 (TCR, V domains shown) Valpha: AQSVTQPDIHITVSEGASLELRCNYSYGATPYLFWYVQSPGQGLQLLLKYFSGDTLVQGIKGFEAEFKRSQSSFNLRKPSVHWSDAAEYFCAVGSPSGYSTLTFGKGTMLLVSP Vbeta: EAQVTQNPRYLITVTGKKLTVTCSQNMNHEYMSWYRQDPGLGLRQIYYSMNVEVTDKGDVPEGYKVSRKEKRNFPLILESPSPNQTSLYFCASSPTRFYEQYFGPGTRLTVT"
4,recognises,"i2B7 (TCR, V domains shown) Valpha: AQSVAQPEDQVNVAEGNPLTVKCTYSVSGNPYLFWYVQYPNRGLQFLLKYITGDNLVKGSYGFEAEFNKSQTSFHLKKPSALVSDSALYFCAVNPTGGGNKLTFGTGTQLKVEL Vbeta: DARVTQTPRDKVTEMGQEVTMRCQPILGHNTVFWYRQTMMQGLELLAYFRNRAPLDDSGMPKDRFSAEMPDATLATLKIQPSEPRDSAVYFCASGLGGNQPQHFGDGTRLSIL"

# Target: T1, GPC3 peptide on HLA-A*24:02
# Assay: cytokine release
row,binding result,Binder
1,recognises,"e1D8 (TCR, V domains shown) Valpha: GEDVEQSLFLSVREGDSSVINCTYTDSSSTYLYWYKQEPGAGLQLLTYIFSNMDMKQDQRLTVLLNKKDKHLSLRIADTQTGDSAIYFCAENHSSASKIIFGSGTRLSIRP Vbeta: DSGVTQTPKHLITATGQRVTLRCSPRSGDLSVYWYQQSLDQGLQFLIQYYNGEERAKGNILERFSAQQFPDLHSELNLSSLELGDSALYFCASSVGSGRNYEQYFGPGTRLTVT"
